Experimental data from the DeepSol protein solubility set.

assay: soluble on expression in E. coli; label from the status in PepcDB or PDB records

| Sequence | soluble on expression in E. coli |
| --- | --- |
| MKEKIPFYNEKEFHYMMKKTKKGTFSGWYIINPENNSVEFSGSFNRQFKLNKPVIPVNTEYVTRKEFNEYKDSNDQRLTKIENKVDKLEIKVDKLEKKVDKLEVKVDKLVETVNAQGEDLNNFKVEVRGTLQSQGETLQLILQTLQGMSKRLDSVEGRLDSMDGRLDSMETRLDKIDPLKLEHHHHHH | not soluble |
| MEIIRSNFKINLHKVYQAIEEADFFAIDGEFSGISNGPSVTALTSGFDTPEERYQKLKKHSMDFLLFQFGLCAFKYDHTDSKHVTKSFNFYVFPKPFSRSSPDVKFVCQSSSIDFLASQGFDFNKVFCSGIPYLNQEEERQLREQFDEKRSQANGAGALAKCPVTIPEDQKKFIDQVIEKIEDFLQSEEKRSLELDPCTGFQRKLIYQTLSWKYPKGIHVETLETDKKERHIVISKVDEEERKRREQEKYTKEQEELNDAVGFSRVIHAIANSGKLVVGHNMLLDVMHTIHQFYCPLPADLNEFKEMAICVFPRLLDTKLMASTQPFKDIINNTSLAELEKRLKETPFDPPKVESAEGFPSYDTASEQLHEAGYDAYITGLCFISMANYLGSLLSPPKMCVSARSKLIEPFFNKLFLMRVMDIPYLNLEGPDLQPKRDHVLHVTFPKEWKTSDLYQLFSAFGNIQISWIDDTSAFVSLSQPEQVQIAVNTSKYAESYRIQTYAEYVGKKQKGKQVKRKWTEDSWKEVDRKRPHMQGPCYHSNSFTAAGMLGKRTLSPDPREAALEDRESEEVSDSELEQTDSCTDPLPEGRKKSKKLKRMKKELSLAGSVSDSPAVLFEVPDTW | soluble |
| MVAIDYVVIGAGYAGLMCAEALMDKGFKTLVFDMRESGGEIVVFSKLEEFRSKYEKYIEKIEEIRKDIPVDIGTVIKSKPVIINSGNGLKRYEARRVILATGATDTAPVKLNVLSKKIEGIYTLENALREISENNKIGEKVLIAAKDDVIVKLAESQLSDLGYDVEISELTNDIQVIGKERVEGVEISGVRYSCDTLVVYGGRNPFNPLKLRGTPVGNVVTCTYDYSKVEENVKNFLAKILEHHHHHH | not soluble |
| DTVKIDANVNYQIIQGFGGMSGVGWINDLTTEQINTAYGSGVGQIGLSIMRVRIDPDSSKWNIQLPSARQAVSLGAKIMATPWSPPAYMKSNNSLINGGRLLPANYSAYTSHLLDFSKYMQTNGAPLYAISIQNEPDWKPDYESCEWSGDEFKSYLKSQGSKFGSLKVIVAESLGFNPALTDPVLKDSDASKYVSIIGGHLYGTTPKPYPLAQNAGKQLWMTEHYVDSKQSANNWTSAIEVGTELNASMVSNYSAYVWWYIRRSYGLLTEDGKVSKRGYVMSQYARFVRPGALRIQATENPQSNVHLTAYKNTDGKMVIVAVNTNDSDQMLSLNISNANVTKFEKYSTSASLNVEYGGSSQVDSSGKATVWLNPLSVTTFVSK | soluble |
| MGHHHHHHSHSPGSASGGSREYKVVMLGAGGVGKSAMTMQFISHQFPDYHDPTIEDAYKTQVRIDNEPAYLDILDTAGQAEFTAMREQYMRGGEGFIICYSVTDRQSFQEAAKFKELIFQVRHTYEIPLVLVGNKIDLEQFRQVSTEEGLSLAQEYNCGFFETSAALRFCIDDAFHGLVREIRKKESMP | soluble |
| ATHYSVADRWGNAVSVTYTINASYGSAASIDGAGFLLNNEMDDFSIKPGNPNLYGLVGGDANAIEANKRPLSSMSPTIVLKNNKVFLVVGSPGGSRIITTVLQVISNVIDYNMNISEAVSAPRFHMQWLPDELRIEKFGMPADVKDNLTKMGYQIVTKPVMGDVNAIQVLPKTKGSVFYGSTDPRKEF | soluble |
| MSLNKIKILPLAIALALSGCGSDETTPIDTGSHVASPDWQDQIIYFLMIDRFNDGDSALNDQGQNEFDPTSDKKFSGGDLVGVSDKLSYIEDLGATSIWITPPVANQWWDAEQNYGGYHGYWARDFQKVDEHFGDMESYQALAREVHARNMFLIQDIVTNHVGNFFTYDDPYSYDPSLPCQGFRLIKNALPAGQELPYPLNMNECKTDGTGSYHWTPTITDHNDPVQEKTWQLSDLDDLNTSDPEVRAYLKESYRKWIREVGVDGFRIDTVKFVEHDFWSDFLHADDGVMTQAVDTGRDNFLTFGEVFETSTPYHTEGEEKMLTYIGESGSPKQLTSVLNFPLQATMTRVFASGQPTDYLRFRLEKMMEMFPNPYIMPNFIDNHDMPRFLSQGSVNDMKQALITMMSVPGIPVIYQGTEQAMSAARDAMFAGGYREDGNYVDSFDQNSEMYLFIQELAKLRTENKVMTRGEIKVIGSDKAGAGVFAFTRTLDNDEVLVVMNTSNSPMLMNQLDVEQAGGTVFKQQIMSNWADAPEQLVADENGHVTLELPAKSAVIYSKTSSNQSVNTPDLNIQLAQDWEGKTITGDIVIAGSANANEKLNLVVDGNLETAQTITVGADGQFSVTLSTRHFAIGEQQHRFAIYSTEKKAGIEDVNFVSNLSWSNTPDDTIDDAGDAQDGVGGPNGNYSLPTDPTFDKDNSQLAINKAEVFTVGSNVRLTFTMDKITDTWLPPNGFDHVGFTIFIDLPEEAATNLSELPKINASMPNGTWSRNAVVFGWQSSIYNTKGANATTWGEAVTPAPTVTVDKANNTISMDFASDALGRPESLDGIRFYVTTWDLDGLSATYRPLEQDKGPWNFSGGASDESKIWDDLPIITLSEGHHHHHH | soluble |
| MSDSLPQRNGGQILVEALRRNAVDTVYCIPGESYLPVLDALYDTDGIRTVVTRHEGAASNMADAYGKLTGRPGICFVTRGPGATHAANGVHTAQQDSTPMILFVGQVESAFKGREAFQEVDYVQMFSGLAKWAVEIDRIERIPEIVGRAFSVATSGRPGPVVVALPEEILFGSAQVADAPEPRVLPGRPGATAMAELRELLANARRPLLVLGGSGWDSAARKRLGAFVEANGLPVATSFRRQDLFDNRDPHYAGQLGFGAAPALLERLRQADLLLVVGARLGETPSAGYSLVRSPAPAQTLIHVHPDSAELNRVYLARLPIQATPCAFAEALADLAPLPSSTWQDWREAAHADYLAYSTPAASDPAVQGVDLASVVAYLSENLPDDAVIANGAGNYAVWVHRFYRYRQARTQLAPTNGAMGYGLPAAIAASLRDPQRSVVCFAGDGCFMMYPQELATAAQFGATPVVIVVNNGMLGTIRMHQEREYPGRVSATRLDNPDFVALARAFGAHAERVECSADFPAAFRRARESGRPALLELLTDPRQITPQA | not soluble |
| MQKTLSAIFLFTTLSANAAPYIGLELGIGTANHSFETNYQSDAVSLNPNMEDMFLGGLIGYKFNDNFSFEINYSSYKLEDQYSKFIGIESLNNQQYRKEHEWSSEIEAKQLALISVYSYPIHQQLKTNIKVGVTHTQYEAYSGKYEELELLLNDDIEIRKALLETGLKKNRFGALFSLGLDYNLIPELSVGTELRYQFDKYNDVLSISLNSKYYF | not soluble |
| MGHHHHHHSHMSAFASSDRAEKSGIALEAQQKIYEKYDKNLAGEILQWVQNVTGQSFDTQGDADNLVKVFQDGSLLCTLANSLKPGSVKKVNTSAMAFKKMENISFFLKFAEEYVQKSELFQTVDLYEGQDPNAVLICLASLARKSEKNFGRSGLGPKEAQGDRREWTDEQLKAGHNVIGLQMGSNKGATASGLNMGNTRHM | soluble |
| MTSQRCRRRYFMMIRERIEEKLRAAFQPVFLEVVDESYRHNVPAGSESHFKVVLVSDRFTGERFLNRHRMIYSTLAEELSTTVHALALHTYTIKEWEGLQDTVFASPPCRGAGSIALEHHHHHH | not soluble |
| MGGWMSCAPPIYTPHTNSWTESGWDRTSWWRWSAQRWSGWSFKIVRANKALRVMAKTKMPLVLIPPSPNKPYSKLAINQELHLTPHKKTSPATSSSLKPRPGPRGYLNARLSWRCPTLSRKVRVPTIKVPMVRAPSTKPSKTSSSNNPWPLTPRMRG | soluble |
| MAHHHHHHMPSLFDPLTIGDLTLANRIIMAPLTRARAGDTRTPNALMARYYAERASAGLIISEATSVTPQGVGYASTPGIWSPEQVDGWRLVTDAVHAAGGRIFLQLWHVGRVSDPVFLDGALPVAPSAIAPGGHVSLVRPQRPYVTPRALELDEIPGVVAAFRRGAENARAAGFDGVEVHGANGYLLDQFLQDSANRRTDAYGGSIENRARLLLEVVDAAIDVWSAARVGVHLAPRGDAHTMGDSDPAATFGHVARELGRRRIAFLFARESFGGDAIGQQLKAAFGGPFIVNENFTLDSAQAALDAGQADAVAWGKLFIANPDLPRRFKLNAPLNEPNAATFYAQGEVGYTDYPALESAA | soluble |
| GPGSMPRGSSKSKKEVSEEPKTTGGSGGDATETSPPTPKAKKGKGGDKMLVNEPNDEKHTVEDARTVQTPSDHETSAARKKPPPKDVKDEKKSEPAHGGGRLLKNNPNDEVVPVEGMHNVATPRSGLITTESDGAKGTMLRNAPHDEAIPVSGHAITMDTPKRTIDVHPGTITNTDDDDDPKSTEEEESVPIGRTRGYCNPRPEAINLEAEVPETTAPNLGYKPQEYAMVNANASREVQELFKRILDYQPQTPELPAKLRPFIPDYVPSIGDLDPFCKIPRPDGKPDGLGIYVLDEPSVAQSNPAVVLLELRATNIHSVGGLAEAVDSFEDAANRPEVIDRWINDVKKVHYKKPLPTINYQKPMPEIDLLLQVWPQEFEEFLNSDVQFPPPQIDLDLDQYVRALCCILDIPTYTSLIDSLHVMFTLYQEFRANQHFQHE | soluble |
| MDTEKLRRQLIDRITDNYSEYRASLLLKDRQELIDGAGRIADTATVFQHLADRSYKPEELEYLLKFQNPLEVVTEHWADYELMPDVLDALIADTVDRQDDLTLFPLATDAPAQKPESLRKFLNVDLETVLPQIMKQKTAFYQTDLNYALDAMREGATSGDPAKQNFVLIFRQSGVECLNERDMFIGGTRSFNTLQFYHTQTREPVLTYSVELTGDGKDGLRGNLYQQDNHRLAEYAGRTASPYTDVTVTFTGGKEVRLPEKEFYYEKAASLKYLHGSIKEVRNEAEDETVVQGAVKREHDRRREMPRGYFAVHLQALDEQRIQAEADRLSSALTDLKQPNSPDKEKFMVEISVYFLPLASQHDMNRLFEKVRDQVGQTVYITPPDDTHKRYFVMRREERAQEQPERKPSIKAQLSAKPVPGDKPATKTKDREVR | not soluble |
| MANKKIDHREEAIELLKQDAKRILQLIKVQMDNLTLPQCPAYEEVLDTQMYGLSREINFATRLGLIEPEEGKKLISTLEKELSALHELSMSKK | not soluble |
| DITERHAREQKLREERAVIQQALDALDEPLFVTDIDGRLKHCNHRALELTGNTEETAVGTPITALFPDEERETIADAVDDALRTGRTTITASLCLDSGQQQRYEFRAHSLTDLDNNTAGLVILGQDVS | not soluble |
| MNAAVVRRTQEALGKVIRRPPLTEKLLSKPPFRYLHDIITEVIRMTGFMKGLYTDAEMKSDNVKDKDAKISFLQKAIDVVVMVSGEPLLAKPARIVAGHEPERTNELLQIIGKCCLNKLSSDDAVRRVLAGEK | soluble |
| MGSDKIHHHHHHMTSSFTDYCKFFNRILSEVQETQEQAIIKGAHLVSEAVMNGGRFYVFGSGHSHMIAEEIYNRAGGLALVTAILPPELMLHERPNKSTYLERIEGLSKSYLKLHQVTNKDVIMIISNSGRNTVPVEMAIESRNIGAKVIAMTSMKHSQKVTSRHKSGKKLYEYADVVLDNGAPVGDAGFQIANSEIYSGATSDSIGCFLAQALIVETLHLLVQQGFEPPVFKSSNVDGADLYNDKIFNEYVKW | not soluble |
